Literature values as cited in article PMC6651453.
Like-named read-outs stand apart in the source and are kept apart here. Blank lines part the entries; values can stand above or below the substance they belong to.

Assays:
TIN2 (Homo sapiens) = TIN2 (Homo sapiens) (UniProt Q9BSI4); experiment: thermophoresis
TPP1 TBM1 (Homo sapiens) [1] = biological target: TPP1 TBM1 (Homo sapiens) (UniProt Q96AP0); experiment: fluorescence polarization
TPP1 TBM1 (Homo sapiens) [2] = biological target: TPP1 TBM1 (Homo sapiens) (UniProt Q96AP0); experiment: fluorescence polarization; remark: listed apart in the source
[3] = biological target: POT1 330-634 (Homo sapiens) (UniProt Q9NUX5); experiment: isothermal titration calorimetry
Chain of UniProt Q9NUX5 (Q9NUX5 330-634): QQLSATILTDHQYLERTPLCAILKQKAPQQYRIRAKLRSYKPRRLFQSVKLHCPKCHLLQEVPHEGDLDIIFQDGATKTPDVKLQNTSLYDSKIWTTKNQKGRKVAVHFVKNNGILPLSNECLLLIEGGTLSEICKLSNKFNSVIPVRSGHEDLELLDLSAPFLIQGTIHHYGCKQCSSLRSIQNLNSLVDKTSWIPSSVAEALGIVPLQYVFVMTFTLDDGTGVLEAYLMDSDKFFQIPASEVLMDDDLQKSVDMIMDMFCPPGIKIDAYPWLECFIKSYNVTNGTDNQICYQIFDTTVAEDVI

[4] = biological target: TPP1 89-544 (Homo sapiens) (UniProt Q96AP0); experiment: fluorescence anisotropy and thermophoresis
[5] = biological target: TIN2 2-202 (Homo sapiens) (UniProt Q9BSI4); experiment: fluorescence polarization
[6] = biological target: TIN2 2-202 (Homo sapiens) (UniProt Q9BSI4); experiment: fluorescence polarization; remark: listed apart in the source

Substance: TRF2 (from UniProt Q15554)
- Kd (TIN2 (Homo sapiens)): 360 nM

Substance: TPP1 255-337 (from UniProt Q96AP0)
- Kd [3]: 120 nM

Substance: TRF1 (from UniProt P54274)
- Kd (TIN2 (Homo sapiens)): 240 nM

Substance: TRF2 TBM2 (from UniProt Q15554)
- Kd [5]: 2700 nM
- Kd [6]: 1100 nM

Continued, values first:

- Kd (TPP1 TBM1 (Homo sapiens) [1]): 520 nM
- Kd (TPP1 TBM1 (Homo sapiens) [2]): 140 nM
Substance: TIN2 2-202 (from UniProt Q9BSI4)

- Kd [4]: 2800 nM
Substance: TIN2 (from UniProt Q9BSI4)
